Source: patent US7754855

Molecular target: rabbit GH receptor (rabbit) (UniProt P19941)
Test: cell-based or functional assay

Sequence of UniProt P19941 (P19941 19-638): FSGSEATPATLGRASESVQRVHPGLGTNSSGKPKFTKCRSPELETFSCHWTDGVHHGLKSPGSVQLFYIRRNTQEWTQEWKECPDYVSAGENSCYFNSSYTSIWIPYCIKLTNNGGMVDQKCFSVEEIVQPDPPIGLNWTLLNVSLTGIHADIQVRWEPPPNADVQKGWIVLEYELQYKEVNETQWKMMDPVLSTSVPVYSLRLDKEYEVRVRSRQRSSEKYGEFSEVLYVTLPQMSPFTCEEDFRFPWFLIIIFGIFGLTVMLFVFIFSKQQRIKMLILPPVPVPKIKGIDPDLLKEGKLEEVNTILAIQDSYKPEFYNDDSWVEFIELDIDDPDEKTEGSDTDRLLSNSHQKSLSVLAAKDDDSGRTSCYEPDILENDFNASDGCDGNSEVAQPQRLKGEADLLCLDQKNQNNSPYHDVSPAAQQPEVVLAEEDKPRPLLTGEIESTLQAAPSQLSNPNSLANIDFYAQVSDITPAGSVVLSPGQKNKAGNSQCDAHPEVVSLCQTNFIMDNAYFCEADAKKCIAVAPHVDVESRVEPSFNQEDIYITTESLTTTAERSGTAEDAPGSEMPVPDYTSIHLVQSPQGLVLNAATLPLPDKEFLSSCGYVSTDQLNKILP

Mean EC50 (nM), proliferation of GH-R4 cells: 0.036 nM
Mean EC50 (ng/ml), proliferation of GH-R4 cells: 0.8 ng/mL
Substance: human pituitary GH standard (from UniProt P01241 27-217) (ligand)
